Measured values taken from patent US20220056124A1 (University of Texas, published 2022).
Substitutions are numbered along the chain they refer to. Values belong to the binder of their own block, whether it stands above or below them.

Experiments:
[1] = biological target: T1, recombinant human endotrophin (77 amino acids at the carboxy-terminal of the COL6α3 chain, HEK293-expressed, … (human, UniProt P12111 3101-3177)); experiment: BLI (Octet RED96)
T1 construct: the His-tag was removed by enterokinase, leaving the 77 amino acid endotrophin free of tags; also called ETP; recombinant endotrophin protein
T1 sequence (P12111 3101-3177 limits assumed): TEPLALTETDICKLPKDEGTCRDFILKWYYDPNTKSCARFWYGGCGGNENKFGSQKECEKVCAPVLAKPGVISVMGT

[2] = biological target: T1, recombinant human endotrophin (77 amino …); experiment: ELISA titration on plate-coated recombinant endotrophin, 4-parameter fit
Procedure: (§1) Antibody-antigen ELISA Binding Assay. Corning 96-well EIA/RIA plates were coated overnight at 4° C. with HEK293 expressed recombinant endotrophin (1 μg/mL) and blocked for 2 hr at 37° C. with 5% non-fat milk. After washing with PBST for 3 times, 100 μL of serial diluted anti-endotrophin antibodies were added and incubated for 45 min at 37° C. Subsequently, the plates were washed with PBST and incubated for 30 min with anti-rabbit or anti-human F(ab′)2 HRP-conjugated antibody (Jackson ImmunoResearch Laboratories). The immunoreactions were developed with TMB substrates (Sigma) and stopped by the addition of 2 M sulfuric acid before reading the plate at 450 nm.
(§2) Binding of endotrophin by monoclonal antibodies was first screened by ELISA using supernatants collected from the B cell cultures (FIG. 10). ELISA titration was used to determine the binding affinity of a panel of monoclonal antibodies to endotrophin antigen (FIG. 11). Binding constants (EC₅₀) of a panel of monoclonal antibodies were estimated using four-parameter curve fitting with Prism GraphPad (Table 3).

[3] = biological target: T1, recombinant human endotrophin (77 amino …); experiment: BLI (Octet RED96), antibody on protein A biosensors, endotrophin 0.1-200 nM, 1:1 fit
Procedure: Following a short baseline in kinetics buffer, the loaded biosensors were exposed to a series of recombinant endotrophin protein at 0.1-200 nM and background subtraction was used to correct for sensor drifting. All experiments were performed with shaking at 1,000 rpm. Background wavelength shifts were measured from reference biosensors that were loaded only with antibody. Kinetic sensorgrams for each antibody are shown in FIGS. 12A&B. ForteBio's data analysis software was used to fit the data to a 1:1 binding model to extract an association rate and dissociation rate.

[4] = biological target: T1, recombinant human endotrophin (77 amino …); experiment: ELISA titration, plate coated with recombinant endotrophin, serially diluted antibody, HRP secondary antibody, OD450
Procedure: as §1, §2

B1: ETP-mAb4 (antibody, V domains shown)
VH: SSRVKESGGDLVKPGASLTLTCKASGFSFSSGYYICWVRQAPGKGLEWIACIYGGNNNPYYANWVNGRFTTSKTSSTTVTLQMTNLTGADTATYFCARKDINIGGAYELWGPGTLVTISS
VL: ELVMTQTPASVSEPVGGTVTINCQASQSISSSYLSWYQQKPGQPPKLLIYKASTLASGVPSRFKGSGSGTQFSLTISDLECADAATYYCQYSDWANSYGNAFGGGTEVVVK
notes: Rabbit monoclonal; also called parental rabbit ETPmAb4
- Kd [1]: 1.62 nM
- EC50 [2]: 0.054 µg/mL
- Kd [3]: 1.75 nM
- koff [3]: 0.000249 s⁻¹
- kon [3]: 142000 M⁻¹ s⁻¹
- EC50 (read off the curve) [4]: ~0.06 µg/mL

B2: ETP-mAb4.1 (humanized ETP-hMab4) (antibody, human IgG1, V domains shown)
VH: EVQLLESGGGLVQPGGSLRLSCAASGFSFSSGYYICWVRQAPGKGLEWIACIYGGNNNPYYANWVNGRFTISRDNSKNTLYLQMNSLRAEDTAVYYCARKDINIGGAYELWGQGTLVTVSS
VL: DIQMTQSPSSLSASVGDRVTITCQASQSISSSYLSWYQQKPGKAPKLLIYKASTLASGVPSRFSGSGSGTDFTLTISSLQPEDFATYYCQYSDWANSYGNAFGGGTKVEIK
notes: Humanized; tied by the number 4.1; also called ENT-hMab4.1
- Kd [3]: 2.03 nM
- koff [3]: 0.000235 s⁻¹
- kon [3]: 116000 M⁻¹ s⁻¹

B3: ETP-mAb4.2 (humanized ETP-hMab4) (antibody, human IgG1, V domains shown)
VH: B2 VH with N57S
VL: B2 VL
notes: also called ENT-hMab4.2
- Kd [3]: 2.48 nM
- koff [3]: 0.000305 s⁻¹
- kon [3]: 123000 M⁻¹ s⁻¹

B6: ETP-mAb1 (antibody, V domains shown)
VH: QSVKESGGDLVKPGASLTLTCTASGIDFSAGYYMCWVRQAPGKGLELIACIYAGRSLNTFYASWAKGRFTISRASSTTVTLAMTSLTAADTATYFCARDGASSGYYFKLWGPGTLVTISS
VL: ELDMTQTPASVEVAVGGTVTIKCQASQSIGSNLAWYQQKPGQRPNVLIYDASNLASGVSSRFKGSGSGTQFTLTISGGECADAATYYCQQGYSDNYLDNAFGGGTEVVVK
notes: Rabbit monoclonal
- EC50 [2]: 0.023 µg/mL
- EC50 (read off the curve) [4]: ~0.02 µg/mL

B11: ETP-mAb2 (antibody, V domains shown)
VH: EQSLEESEGGLVQPEGSLTLTCTASGFSFSRSDYMCWVRQAPGKGLEWIGWIDPGYSDTYYASWAQGRTTISKASSTTVTLQMTSLTVADTATYFCARDLGFDSNLWGPGTLVTISS
VL: ELDLTQTPASVSEPVGGTVTIKCQASQSINSYLSWYQQKPGQPPKLLIYQASKLASGVPSRFKGSGSGTQFTLTISDLECADAATYYCQSYDYRISGSDGNVFGGGTNVEIK
notes: Rabbit monoclonal
- EC50 [2]: 0.1 µg/mL
- EC50 (read off the curve) [4]: ~0.1 µg/mL

Further lines, results first:

- Kd [3]: 1.92 nM
- koff [3]: 0.000223 s⁻¹
- kon [3]: 116000 M⁻¹ s⁻¹
B4: ETP-mAb4.5 (humanized ETP-hMab4) (antibody, human IgG1, V domains shown)
VH: B2 VH with S28T, N57S
VL: B2 VL
notes: also called ENT-hMab4.5

- Kd [3]: 2.53 nM
- koff [3]: 0.000328 s⁻¹
- kon [3]: 130000 M⁻¹ s⁻¹
B5: ETP-mAb4.4 (humanized ETP-hMab4) (antibody, human IgG1, V domains shown)
VH: B2 VH with I71T
VL: B2 VL
notes: also called ENT-hMab4.4

- EC50 [2]: 0.142 µg/mL
- EC50 (read off the curve) [4]: ~0.1 µg/mL
B7: ETP-mAb10 (antibody, V domains shown)
VH: QSLEESGGGLVQPEGSLTLTCTASGFSFSRGDYMCWVRQAPGKGLEWIGWIDVGRDNDSYYATWAKGRFSISKTSSTTVTLQMTSLTVADTATYFCARDLGFDTNLWGPGTLVTVSS
VL: ELDMTQTPASVSAAVGGTVTINCQASQNINSWLSWYQQKPGQPPKLLIYQASKLASGVPSRLKGSGSGTQFSLTISDLECADGATYYCQSYDYRSSGNGGNVFGGGTEVEIK
notes: Rabbit monoclonal

- EC50 [2]: 0.306 µg/mL
- EC50 (read off the curve) [4]: ~0.3 µg/mL
B8: ETP-mAb72 (antibody, V domains shown)
VH: B7 VH with M34V, R55S, D56V, N57I, D58E, S70T
VL: ELVMTQTPASVEAAVGGTVTINCQASESISIYLNWYQQKPGQPPKLLIYQASKLASGVPSRFKGSGSGTEFTLTISDLECADAATYYCQSHDYRIGRSDCNVFGGGTNVEIK
notes: Rabbit monoclonal

- EC50 [2]: 0.359 µg/mL
- EC50 (read off the curve) [4]: ~0.4 µg/mL
B9: ETP-mAb11 (antibody, V domains shown)
VH: QSVKESEGGLVQPEGSLTLTCTASGFSFSSSYYMCWVRQAPGKGLEWIGCIYLGNNENTAYTSWAKGRFTISKTSSTTVTLQMTSLTAADTTTYFCARDTSGGSDYYFGLWGPGTLVTISS
VL: ELDLTQTPASVEVAVGGTVTIKCQASHRIKTYLAWYQQKPGQPPKLLIYGASTLASGVPSRFKGSGSGTQFTLTISGVECADAATYYCQQGYSDGNVDNVFGGGTEVEIK
notes: Rabbit monoclonal

- EC50 [2]: 0.053 µg/mL
- EC50 (read off the curve) [4]: ~0.06 µg/mL
B10: ETP-mAb6 (antibody, V domains shown)
VH: QSVKESEGGLVQPEGSLTLTCTASGFSFSNSDYMCWVRQAPGKGLEWIGWIDLVGNTNSYYASWAKGRFTISKTSSTTVALQMTSLTVADTATYFCARDLGFDTNLWGPGTLVTVSS
VL: ELDLTQTPASVSAAVGGTVTINCQASQNINSWLSWYQQKPGQRPKLLIYQASKLPSGVPSRFKGSGSGTQFTLTISDLECADAATYYCQSHDYRTTGSYGNVFGGGTEVEIK
notes: Rabbit monoclonal
